Experimental findings from patent US20220135694A1, “NOVEL CD40-BINDING ANTIBODIES” (LAVA THERAPEUTICS B.V., priority 2019, published 2022) are described below.

The test system of one assay is CD19+ CLL cells. The assay can be described thus: Cytotoxicity of CLL cells by autologous CD3+ cells, live cell count with counting beads. Type of assay: cell-based, human. The settings on record: 10 nM, overnight, CD3+:CD19+ 10:1, autologous; FIG. 16. Here is the method: PBMCs from CLL patients were obtained, cryopreserved and thawed as described in Example 3.
CD3^+ cells were isolated from CLL PBMCs using magnetic beads (purity ≥93%; 130-050-101, Miltenyi Biotec) to simultaneously enrich for Vγ9Vδ2-T cells. CD19^+ CLL cells were isolated from the same sample using magnetic beads (purity ≥93%; 130-050-301, Miltenyi Biotec). CD3^+ cells were cultured overnight with CD19^+ CLL cells in a 10:1 ratio with V19S76K-5C8 (10 nM) or medium control.
Samples were incubated with Fixable Viability Dye eF780 (65-0865-14), PerCPeF710-conjugated anti-CD3), PE-conjugated anti-CD5 (12-0059-42, all Thermo Fisher Scientific) and FITC-conjugated anti-CD20 (A07772, Beckman Coulter) antibodies. Live CLL cells were then quantified using counting beads (01-1234-42, Thermo Fisher Scientific) on a FACSCanto cytometer (BD Biosciences).

A further assay concerns the target T1, Vγ9Vδ2+ cells (Homo sapiens, UniProt A0JD36).
T1 construct: endogenous in cells; host or cells: healthy donor-derived, expanded Vγ9Vδ2-T cell lines
T1 sequence (A0JD36 20-115): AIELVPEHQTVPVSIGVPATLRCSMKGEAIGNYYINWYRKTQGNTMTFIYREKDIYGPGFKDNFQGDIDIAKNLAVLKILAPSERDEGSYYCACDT
Put plainly: Bispecific VHH binding to Vγ9Vδ2-T cell lines, flow cytometry, non-linear regression. The settings on record: FIGS. 6A and B, read-out: apparent Kd. As for the experimental part: The CLL-derived cell line CII was grown in complete IMDM. Purified Vγ9Vδ2-T cell lines were generated as described previously (de Bruin et al. (2017), Oncoimmunology 7(1): e1375641). In short, Vδ2^+-T cells were isolated from healthy donor (HD) PBMCs using FITC-conjugated anti-Vδ2 TCR (2257030, Sony, San Jose, Calif.) in combination with anti-mouse IgG microbeads (Miltenyi Biotec, Bergisch Gladbach, Germany) and cultured weekly with irradiated feeder mix consisting of PBMCs from 2 HDs, JY cells, IL-7 (10 U/mL), IL-15 (10 ng/mL, R&D Systems) and phytohaemagglutinin (PHA; R30852801, Thermo Fisher Scientific).
Purity of Vγ9Vδ2-T cell lines was maintained at >90%.
VHH binding was tested as described in Example 6.
After 48 hours, cells were analyzed by flow cytometry as described in Example 2.
(In general: In flow cytometry, cells or beads pass a laser one at a time.)

B1: V19S76K-5C8: tag-less bispecific anti-CD40-anti-Vγ9Vδ2-TCR VHH, SEQ ID NO:23 (protein)
VHH: QVQLQESGGGLVQAGGSLRLSCAASGRTFGRSAMGWFRQAPGKEREFVAAIGTRGGSTKYADSVKGRFTISTDNAKNTVYLQMDSLKPEDTAVYRCAVRGPGYPSAAIFQDEYHYWGQGTQVTVSSGGGGSEVQLVESGGGLVQAGGSLRLSCAASGRPFSNYAMGWFRQAPGKEREFVAAISWSGGSTSYADSVKGRFTISRDNAKNTVYLQMNSPKPEDTAIYYCAAQFSGADYGFGRLGIRGYEYDYWGQGTQVTVSS
modifications: antibody sequence
In the case of B1, in the assay on CD19+ CLL cells, the “live CLL cells versus medium control” value was “Fewer CLL cells were alive”. Besides, in the assay with Vγ9Vδ2+ cells, the Kd stood at 1.2 nM.
